B1: neurotrophin-3 (protein, UniProt P20783 139-257, looked up)
Neurotrophin-3: YAEHKSHRGEYSVCDSESLWVTDKSSAIDIRGHQVTVLGEIKTGNSPVKQYFYETRCKEARPVKNGCRGIDDKHWNSQCKTSQTYVRALTSENNKLVGWRWIRIDTSCVCALSRKIGRT
notes: growth factor
B2: PDGF-BB: PDGF family member used to replace PDGF-AA (protein, UniProt P01127 82-190, looked up)
Platelet-derived growth …: SLGSLTIAEPAMIAECKTRTEVFEISRRLIDRTNANFLVWPPCVEVQRCSGCCNNRNVQCRPTQVQLRPVQVRKIEIVRKKPIFKKATVTLEDHLACKCETVAAARPVT

Tests used:
HFSC cells [1] = assay: Expansion of HFSC cells with growth factors and supplements (live cell count); assay type: cell-based, human; conditions: 10 ng/ml NT-3 added at passage 17; cell line #2b; effect disappeared after a passage
HFSC cells [2] = assay: as above; assay type: cell-based, human; conditions: cell line #2b and cell line #3; same condition except for PDGF-AA
Procedure: FIG. 4 illustrates the expansion rate of HFSC cells (cell line #2b) in the presence of different combinations of growth factors: (1): 20 ng/ml PDGF-AA+10 ng/ml bFGF; (2): 20 ng/ml PDGF-AA+10 ng/ml bFGF+5 ng/ml NT-3; (3): 20 ng/ml PDGF-AA+10 ng/ml bFGF+10 ng/ml IGF-1; (4): 20 ng/ml PDGF-AA+10 ng/ml bFGF+5 ng/ml NT-3+10 ng/ml IGF-1. The cells were harvested at day 11 of passage 3 (P3D11) and number of live cells in each condition was counted. Then, they were passaged in the same condition that was used at passage 3 at the same cell density. The cells were harvested at day 8 of passage 4 (P4D8) and number of live cells in each condition was counted (these cells were harvested before they became sub-confluent because they started forming spheres). […] Condition (3) was effective at both passages. […] The cells were harvested at day 7 of passage 5 (these cells were harvested before they became sub-confluent because they started forming spheres as they did at passage 4) and number of live cells in each condition was counted. […]

Molecule	effect on cell growth (HFSC cells [1])	expansion of cells when replacing PDGF-AA (HFSC cells [2])
B1	enhanced the cell growth a little bit	
B2		could expand both cell lines
